This is an account of results in patent publication US6541212.

In the experiment the target is T1, recombinant secreted soluble PSCA with a C-terminal 6XHis and MYC tag (human) (UniProt O43653).
T1 sequence: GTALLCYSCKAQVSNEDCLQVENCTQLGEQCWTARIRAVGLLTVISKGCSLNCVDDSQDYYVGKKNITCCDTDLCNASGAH
The experiment is described as follows: SPR (BIAcore), recombinant PSCA immobilized at 30 RU, mAb in solution.

B1: anti-PSCA monoclonal antibody 1G8 (antibody, part only; not given: light chain, V domains shown, part only)
VH: CFFLMAVVIGVNSEVQLQQSGAELVRSGASVKLSCTASGFNIKDYYIHWVNQRPDQGLEWIGWIDPENGDTEFVPKFQGKATMTADIFSNTAYLHLSSLTSEDTAVYYCKTGGFWGQGTLVTVSAAKTTPPSVYPL
Take B1: the Kd (commonly the concentration at which binding is half-saturated) was 1 nM and the kon (in general, the rate constant with which the complex forms) stood at 168000 M⁻¹ s⁻¹.
